In PMC3072279 (Biochemistry, 2011):

Molecular target: the molecule itself
Test: SEC-MALS

B1: DCAF1 817–1507, C-terminally His6-tagged (domain or fragment)
chain: not shown
With B1 the “stoichiometry N” value was 2.
